Reference: patent publication EP4273162A1 (Numab Therapeutics AG, dated 2023)

B1: scFv 54-21-H03-sc01 (PRO1922) (scFv)
scFv: DIQMTQSPSSLSASVGDRVTITCQASESIYSSLAWYQQKPGKAPKLLIYLASTLASGVPSRFSGSGSGTDFTLTISSLQPEDFATYYCQSTDYTTSTHRNSFGTGTKVTVLGGGGGSGGGGSGGGGSGGGGSEVQLVESGGGLVQPGGSLRLSCAASGFSFSTTYYMCWVRQAPGKGLEWIGCTNTASSVRTYYATWAKGRFTISRDNSKNTVYLQMNSLRAEDTAVYYCARDMGFADYALNLWGQGTLVTVSS
notes: also called PRO1992; PRO1922 wt
B2: scFv 37-20-B03-sc09.1 PRO2230 (scFv)
scFv: DIQMTQSPASLSASVGDRVTITCQASQSIGTYLAWYQQKPGKPPKLLIYRAFILASGVPSRFSGSGSGTDFTLTISSLQPEDFATYYCQSNFYSDSTTIGPNAFGTGTKVTVLGGGGGSGGGGSGGGGSGGGGSEVQLVESGGGLVQPGGSLRLSCAASGFSFNSDYWIYWVRQAPGKGLEWIASIYGGSSGNTQYASWAQGRFTISRDNSKNTVYLQMNSLRAEDTAVYFCARGYVDYGGATDLWGQGTLVTVSS
notes: also called PRO2330; PRO2230 wt

What was measured:
[1] = biological target: pre-existing anti-drug antibodies (ADAs) in human sera; experiment: ELISA, scFv coated, 5% human serum unspiked/spiked, anti-human IgG-HRP
[2] = biological target: T1, human α-Mesothelin (Acro Biosystems; MSN_H5223) (human, UniProt Q13421 296-580, limits assumed); experiment: SPR, MSLN immobilised, scFv as analyte, 1:1 Langmuir fit
T1 construct: also called Human MSLN; MSLN

[3] = biological target: T2, human α-PD-L1 Fc (Sino Biological, 10084-H02H, LC11NO2402) (human, UniProt Q9NZQ7 19-239); experiment: SPR, PD-L1 Fc immobilised, scFv as analyte, 1:1 Langmuir fit
T2 construct: also called Human PD-L1
T2 sequence (Q9NZQ7 19-239 limits assumed): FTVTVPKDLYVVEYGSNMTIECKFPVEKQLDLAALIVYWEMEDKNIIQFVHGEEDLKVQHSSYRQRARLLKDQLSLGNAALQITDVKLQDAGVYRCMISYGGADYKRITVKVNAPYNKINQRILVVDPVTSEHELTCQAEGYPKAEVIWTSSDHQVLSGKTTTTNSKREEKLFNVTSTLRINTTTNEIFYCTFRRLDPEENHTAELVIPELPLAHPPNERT

T1 sequence (Q13421 other isoform, or with tags, fused parts or gaps limits assumed): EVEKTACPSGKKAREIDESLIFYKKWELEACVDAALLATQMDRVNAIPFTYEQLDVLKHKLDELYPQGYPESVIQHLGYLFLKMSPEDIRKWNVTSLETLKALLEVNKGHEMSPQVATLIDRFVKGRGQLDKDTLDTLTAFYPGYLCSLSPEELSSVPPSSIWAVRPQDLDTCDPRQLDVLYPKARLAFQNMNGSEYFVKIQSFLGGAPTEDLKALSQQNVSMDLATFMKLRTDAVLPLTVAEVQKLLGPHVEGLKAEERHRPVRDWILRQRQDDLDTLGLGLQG

| Binder | No of positive serum samples above 30 % CCP (positive sera of 20) [1] | No of screening positive serum samples above 30 % Inhibition (positive sera of 20) [1] | Kd [2] [nM] | Kd [3] [nM] |
| --- | --- | --- | --- | --- |
| B1 | 10 | 16 | 1.8 | – |
| B2 | 6 | 18 | – | 1.5 |
